Results published in the Immune Epitope Database (IEDB).

Legend:
Assay in all cases: IEDB peptide-MHC binding, purified MHC/competitive/radioactivity; filed as Kd, often an IC50 or EC50 that approximates it; ≥ and ≤ were set here for values at or beyond the usual limits of such assays
HLA-A*02:02 = molecular target: HLA-A*02:02
HLA-A*02:06 = molecular target: HLA-A*02:06
HLA-A*02:03 = molecular target: HLA-A*02:03
HLA-A*68:01 = molecular target: HLA-A*68:01
HLA-A*31:01 = molecular target: HLA-A*31:01
HLA-A*11:01 = molecular target: HLA-A*11:01
HLA-A*33:01 = molecular target: HLA-A*33:01
HLA-A*03:01 = molecular target: HLA-A*03:01
[1] = source organism: Vaccinia virus WR
[2] = source organism: Mammarenavirus guanaritoense
[3] = source organism: SARS coronavirus Tor2
[4] = source organism: Mammarenavirus whitewaterense
[5] = source organism: Mammarenavirus choriomeningitidis

Sequence | Kd (HLA-A*02:02; [1]) [nM] | Kd (HLA-A*02:06; [1]) [nM] | Kd (HLA-A*02:03; [1]) [nM] | other results
AAAKTPVIV | 1900 | ≥ 66800 | 1420 | 
ALEQYGIENT | 3150 | 1270 | 2160 | 
CIVAAVIIMA | 1130 | 733 | 619 | 
CNYTRFWYI |  |  |  | Kd (HLA-A*02:02; [2]): 10100 nM; Kd (HLA-A*02:06; [2]): 257 nM; Kd (HLA-A*02:03; [2]): 5310 nM
CVRNLEELTT | 12600 | ≥ 42800 | 15200 | 
DISVNASKTI | ≥ 46800 | ≥ 69800 | 11900 | 
DIVSDSKKIM | ≥ 25100 | ≥ 69800 | ≥ 57200 | 
DTGKKELALT | 1040 | 6800 | 262 | 
DTLVKSGLT | 1950 | ≥ 52700 | 2880 | 
DVKVLAARL | 6230 | 9990 | 10700 | 
EAFETQSGA | ≥ 77800 | ≥ 49700 | ≥ 78100 | 
EIITGNKVKT | ≥ 70000 | ≥ 69800 | ≥ 70400 | 
EVRYIDITNI | 12900 | 4340 | 5810 | 
FLPSDFFPSV |  |  |  | Kd (HLA-A*02:02; source organism: Hepatitis B virus): 2 nM
FLWLLWPVTL |  |  |  | Kd (HLA-A*02:02; [3]): 2.67 nM; Kd (HLA-A*02:06; [3]): 28.4 nM; Kd (HLA-A*02:03; [3]): 14 nM
FVKENERVNV | 186 | 683 | 11.8 | 
FVMCLEAKT | 609 | 979 | 1940 | 
GLFTSLGKAV |  |  |  | Kd (HLA-A*02:03; source organism: Dengue virus 4 Dominica/814669/1981): 18.7 nM
GLLQFIVFL |  |  |  | Kd (HLA-A*02:02; [4]): 0.6 nM; Kd (HLA-A*02:06; [4]): 12.4 nM; Kd (HLA-A*02:03; [4]): 7710 nM
GLYIPGTSVI | 92.1 | 3620 | 0.189 | 
GMSKEPGVV |  |  |  | Kd (HLA-A*02:03; source organism: Dengue virus 3 Martinique/1243/1999): 41.7 nM
GTGILFMEM | 2200 | 9980 | 7730 | 
GVCYYLLMHL | 95.8 | 128 | 63.8 | 
GVLHTKFWI | 16600 | 417 | 12300 | 
IAVITETIPI | 515 | 1.04 | 31.9 | 
IIPFIAYFVL | 715 | 852 | 4730 | 
ILFLTLIVFT |  |  |  | Kd (HLA-A*02:02; [3]): 23.6 nM; Kd (HLA-A*02:06; [3]): 703 nM; Kd (HLA-A*02:03; [3]): 1070 nM

Sequence | Kd (HLA-A*02:02; [1]) [nM] | Kd (HLA-A*02:06; [1]) [nM] | Kd (HLA-A*02:03; [1]) [nM] | other results
ITETIPIGM | 12400 | 7690 | ≥ 42800 | 
KINEMVDELV | 587 | 3050 | 492 | 
KTIAVSVYGA | 366 | 427 | 224 | 
LIVAALVFL |  |  |  | Kd (HLA-A*02:02; [3]): 9.38 nM; Kd (HLA-A*02:06; [3]): 10.5 nM; Kd (HLA-A*02:03; [3]): 136 nM
LIYRQLTSNV | 78.7 | 169 | 7.49 | 
LLTIGLSLV |  |  |  | Kd (HLA-A*02:03; source organism: Dengue virus 1 Brazil/97-11/1997): 4.99 nM
LLVAAGMEA |  |  |  | Kd (HLA-A*02:02; [3]): 17.4 nM; Kd (HLA-A*02:06; [3]): 117 nM; Kd (HLA-A*02:03; [3]): 16.6 nM
LMGHFSWWTA |  |  |  | Kd (HLA-A*02:02; [3]): 19.2 nM; Kd (HLA-A*02:06; [3]): 97.4 nM; Kd (HLA-A*02:03; [3]): 135 nM
LNQTVYSLV |  |  |  | Kd (HLA-A*02:02; [5]): 3330 nM; Kd (HLA-A*02:06; [5]): 5100 nM; Kd (HLA-A*02:03; [5]): 1500 nM
LTQVKELGIA | 11800 | 18.1 | 150 | 
LVFLILCFT |  |  |  | Kd (HLA-A*02:02; [3]): 2490 nM; Kd (HLA-A*02:06; [3]): 1370 nM; Kd (HLA-A*02:03; [3]): 1850 nM
LVKDESIQL | 122 | 1400 | 649 | 
MQKFTILEYL | 164 | 909 | 279 | 
NILMDSIFV | 252 | 170 | 223 | 
NLCKYLRGHT | ≥ 39600 | ≥ 69800 | 8040 | 
NLVQYRILPM | 3990 | ≥ 24500 | 1330 | 
NVSGVPHSV | 825 | 278 | 24 | 
PTDMLKLFT | ≥ 29100 | ≥ 69200 | ≥ 47000 | 
QIGGEAIFLI | 8.19 | 14.8 | 0.201 | 
QVLQQNNSFI | 544 | 2320 | 3180 | 
RAFIYSIMET | 81.4 | 578 | 69.7 | 
RILGAGCFV |  |  |  | Kd (HLA-A*02:02; [3]): 24.4 nM; Kd (HLA-A*02:06; [3]): 38 nM; Kd (HLA-A*02:03; [3]): 53.3 nM
RIQRRDDVDR |  |  |  | Kd (HLA-A*68:01; [1]): ≥ 42500 nM; Kd (HLA-A*31:01; [1]): 78.5 nM; Kd (HLA-A*11:01; [1]): ≥ 69800 nM; Kd (HLA-A*33:01; [1]): 17600 nM; Kd (HLA-A*03:01; [1]): ≥ 70100 nM
RVDIYYNGNK |  |  |  | Kd (HLA-A*68:01; [1]): 120 nM; Kd (HLA-A*31:01; [1]): 5360 nM; Kd (HLA-A*11:01; [1]): 4.86 nM; Kd (HLA-A*33:01; [1]): ≥ 53600 nM; Kd (HLA-A*03:01; [1]): 45.6 nM
SAVFKDSFL | 231 | 1140 | 536 | 
SFYYIWKSY |  |  |  | Kd (HLA-A*68:01; [3]): 447 nM; Kd (HLA-A*31:01; [3]): 68.1 nM; Kd (HLA-A*11:01; [3]): 6730 nM; Kd (HLA-A*33:01; [3]): 779 nM; Kd (HLA-A*03:01; [3]): 5150 nM
